This is an account of results in PMC10349056, “The combined action of the intracellular regions regulates FGFR2 kinase activity” (Communications Biology, 2023).

What all share (test): MST; JM labelled with Atto 488, serial dilutions of KD titrated, 25 °C; 20 mM HEPES, 150 mM NaCl, 1 mM TCEP, 0.01% Tween 20, pH 7.5; the text calls the constant of KD^pY1 apparent (Kd,app)
What all share (details): both partners purified

For test [1], the target named is T1, FGFR2 kinase domain K518I (catalytically inactive, non-phosphorylatable) (UniProt P21802-3 465-764, K518I).
T1 construct: FGFR2 (IIIb isoform) kinase domain, residues 465-764; numbers count on: FGFR2IIIb (C1 isoform, 822 residues); also called KD^K518I; source: E. coli BL21(DE3), purified (Talon, Superdex 75)

Test [2] deals with T2, FGFR2 kinase domain, phosphorylation state pY2 (UniProt P21802-3 465-764, Y467F (worked out from the printed order of phosphorylation) | Y589F (worked …, phosphotyrosine at 657 and 587)).
T2 construct: FGFR2 (IIIb isoform) kinase domain, residues 465-764; numbers count on: FGFR2IIIb (C1 isoform, 822 residues); also called KD^pY2; source: E. coli BL21(DE3), purified (Talon, Superdex 75)

For test [3], the target named is T3, FGFR2 kinase domain, phosphorylation state pY4 (UniProt P21802-3 465-764, Y658F (worked out from the printed order of phosphorylation) | Y734F (worked …, phosphotyrosine at 657, 587, 467 and 589)).
T3 construct: FGFR2 (IIIb isoform) kinase domain, residues 465-764; numbers count on: FGFR2IIIb (C1 isoform, 822 residues); also called KD^pY4; source: E. coli BL21(DE3), purified (Talon, Superdex 75)

The target in test [4] is T4, FGFR2 kinase domain, phosphorylation state pY5 (UniProt P21802-3 465-764, Y734F (worked out from the printed order of phosphorylation), phosphotyrosine at 657, 587, 467, 589 and 658).
T4 construct: FGFR2 (IIIb isoform) kinase domain, residues 465-764; numbers count on: FGFR2IIIb (C1 isoform, 822 residues); also called KD^pY5; source: E. coli BL21(DE3), purified (Talon, Superdex 75)

Where no end group is shown, it is not given here.

T4 sequence (P21802 464-763 Y733F): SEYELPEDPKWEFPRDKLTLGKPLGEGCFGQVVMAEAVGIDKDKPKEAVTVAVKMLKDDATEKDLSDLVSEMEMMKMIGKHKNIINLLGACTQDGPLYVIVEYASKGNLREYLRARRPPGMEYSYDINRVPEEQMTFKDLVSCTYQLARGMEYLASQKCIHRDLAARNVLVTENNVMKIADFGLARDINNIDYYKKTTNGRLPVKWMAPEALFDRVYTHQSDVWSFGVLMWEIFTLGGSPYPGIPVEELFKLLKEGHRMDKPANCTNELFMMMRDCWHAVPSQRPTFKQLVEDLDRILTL
T2 sequence (P21802 464-763 Y466F/Y588F/Y657F/Y733F): as the sequence (P21802 464-763 Y733F) above, with Y3F, Y125F, Y194F counted along it
T1 sequence (P21802 464-763 K517I): as the sequence (P21802 464-763 Y733F) above, with K54I, F270Y counted along it
T3 sequence (P21802 464-763 Y657F/Y733F): as the sequence (P21802 464-763 Y733F) above, with Y194F counted along it

B1: FGFR2 juxtamembrane region (407-462), labelled with Atto 488 (peptide, UniProt P21802-3 407-462, looked up)
chain: KPDFSSQPAVHKLTKRIPLRRQVTVSAESSSSMNSNTPLVRITTRLSSTADTPMLA
modifications: also: labelled with Atto 488
notes: FGFR2 (IIIb isoform) juxtamembrane region, residues 407-462; numbers count on: FGFR2IIIb (C1 isoform, 822 residues); also called JM; 407Juxtamembrane region462; source: synthetic peptide, bought: Genscript
As to B1, the Kd in test [1] was found to be 13.4 ± 0.994 µM; in test [2], 6.98 ± 0.877 µM; in test [3], 10.2 ± 1.33 µM; in test [4], 22.5 ± 1.8 µM.
